Assay [1] deals with T1, purified human FAP antigen (human, UniProt Q12884 26-760, limits assumed). Put plainly: ELISA, plate coated with purified human FAP antigen (FIG. 56F-56G). The protocol:
(§1) Binding kinetics of the novel antigen binding constructs to a purified human FAP antigen was assessed using ELISA. For this assay, a 96 well ELISA plate was coated with the human-FAP antigen diluted to a concentration of 2 mg/mL in coating buffer (0.05M sodium carbonate-bicarbonate buffer, pH 9.6). 100 μl of this coating solution was added to each well in the plate and incubate at 4° C. overnight. The plate was washed 3 times with 300 μl per well of washing buffer (PBS with 0.05% Tween-20). After the last wash, the plate was blocked by adding to each well 200 μl of blocking buffer (PBS with 1% BSA) warmed to room temperature. The plate was then incubated at room temperature for 1 hour under gentle agitation. After blocking, the plate was washed 3 times with 300 μl per well of washing buffer. Dilution samples for each minibody were created by making 2.5× dilutions from a starting sample at 100 ng/mL, or 250 ng/mL, or 1000 ng/mL or 3000 ng/mL in 100 μL sample buffer (PBS with 1% BSA). The dilution samples were transferred to the assay plate and incubated at room temperature for 1 hour under gentle agitation. The plate was then washed 3 times with 300 μl per well of washing buffer.
(§2) Detection was performed by adding 100 μl of HRP labeled detection secondary antibody at an appropriate dilution and incubating the plate at room temperature for 1 hour under gentle agitation. The plate was then washed 3 times with 300 μl per well of washing buffer. For color development, 100 μl of TMB substrate regent, pre-warmed to room temperature, was added to the plate and incubated in the dark at room temperature for 15 min. The reaction was then stopped by adding 100 μl of 650 nm stop solution to the plate and mixed for 1 min at room temperature under gentle agitation. The plate is recorded by reading OD at 650 nm in a plate reader within 20 min after terminating the reaction.

The next assay concerns the target T2, human FAP on cells (human, UniProt Q12884 1-760).
T2 construct: whole, on cells; The cell line is named under assay; also called HT1080 human FAP cells; HT1080-hFAP cells
Put plainly: flow cytometry on U87-MG glioblastoma cells (FIG. 58B). On the procedure: As disclosed herein, the binding of constructs to cellular targets was assessed using flow cytometry. Stock of 2.5× serial dilution of minibodies were created starting from a concentration of 100 nM in […] FACS buffer (PBS 2% FBS). Cells were added to a Corning V-bottom polypropylene cell culture plate at 200,000 cells/well. The cells were centrifuged at 100 rpm for 3 minutes and the supernatant discarded. The minibody dilution series were transferred to the plate containing cell pellets and incubated for 1 hr at 4° C. The plate was then washed 3 times with FACS buffer at 200 µl/well, discarding supernatant after each wash by centrifugation at 1000 rpm. 50 µl/well of detection antibody R&D AlexaFluor-647 Goat anti Human (H+L) was added at a 1:100 dilution in FACS buffer and incubated at 4° C. 1 hr. The plate was washed 3 times with FACS buffer at 200 µl/well, discarding supernatant after each wash by centrifuging at 1000 rpm. Cells were then fixed by adding 100 µl of 1% paraformaldehyde in PBS and incubating at room temperature for 15 minutes. 100 µl of PBS were added to each well and the plate was analyzed by flow cytometry using the allophycocyanin fluorescence setting.

The target in assay [2] is T1, purified human FAP antigen. Put plainly: ELISA, plate coated with purified human FAP antigen (FIG. 56A-56C). The protocol:
as §1, §2
In general terms: An ELISA detects its analyte on a solid surface through an enzyme-linked reagent.

What is called Kd is the equilibrium constant for the complex coming apart. The low end stands for higher affinity, the high end for lower affinity.

B1: IAB16C4-27 (other)
chain: EVQLLESGGGLVQPGGSLRLSCAASGFTFSSHAMSWVRQAPGKGLEWVSAIWASGEQYYADSVKGRFTISRDNSKNTLYLQMNSLRAEDTAVYYCAKGWLGNFDYWGQGTLVTVSSGGGSGGGGEIVLTQSPGTLSLSPGERATLSCRASQSVSRSYLAWYQQKPGQAPRLLIIGASTRATGIPDRFSGSGSGTDFTLTISRLEPEDFAVYYCQQGQVIPPTFGQGTKVEIKGGCPPCPPC
For the molecule B1, in assay [1], the Kd was roughly 1 nM.

B2: IAB16M1-10 (other)
chain: EIVLTQSPGTLSLSPGERATLSCRASQSVSRSYLAWYQQKPGQAPRLLIIGASTRATGIPDRFSGSGSGTDFTLTISRLEPEDFAVYYCQQGQVIPPTFGQGTKVEIKGSTSGGGSGGGSGGGGSSEVQLLESGGGLVQPGGSLRLSCAASGFTFSSHAMSWVRQAPGKGLEWVSAIWASGEQYYADSVKGRFTISRDNSKNTLYLQMNSLRAEDTAVYYCAKGWLGNFDYWGQGTLVTVSSEPKSSDKTHTCPPCPPCGGGSSGGGSGGQPREPQVYTLPPSREEMTKNQVSLTCLVKGFYPSDIAVEWESNGQPENNYKTTPPVLDSDGSFFLYSKLTVDKSRWQQGNVFSCSVMHEALHNHYTQKSLSLSPG
As for B2, the Kd (with human FAP on cells; in assay [2]) was roughly 0.1 nM in each case.

B3: IAB16C2-25 (other)
chain: EVQLLESGGGLVQPGGSLRLSCAASGFTFSSHAMSWVRQAPGKGLEWVSAIWASGEQYYADSVKGRFTISRDNSKNTLYLQMNSLRAEDTAVYYCAKGWLGNFDYWGQGTLVTVSSSGGGGEIVLTQSPGTLSLSPGERATLSCRASQSVSRSYLAWYQQKPGQAPRLLIIGASTRATGIPDRFSGSGSGTDFTLTISRLEPEDFAVYYCQQGQVIPPTFGQGTKVEIKGGCPPCPPC
For B3, in assay [1], the Kd is roughly 1 nM.

B4: IAB16C1-24 (other)
chain: EIVLTQSPGTLSLSPGERATLSCRASQSVSRSYLAWYQQKPGQAPRLLIIGASTRATGIPDRFSGSGSGTDFTLTISRLEPEDFAVYYCQQGQVIPPTFGQGTKVEIKSGGGGEVQLLESGGGLVQPGGSLRLSCAASGFTFSSHAMSWVRQAPGKGLEWVSAIWASGEQYYADSVKGRFTISRDNSKNTLYLQMNSLRAEDTAVYYCAKGWLGNFDYWGQGTLVTVSSGGCPPCPPC
In assay [1], B4 showed a Kd of roughly 1 nM.

B5: IAB16C2-16 (other)
chain: QVQLVQSGAEVKKPGASVKVSCKTSRYTFTEYTIHWVRQAPGQRLEWIGGINPNNGIPNYNQKFKGRVTITVDTSASTAYMELSSLRSEDTAVYYCARRRIAYGYDEGHAMDYWGQGTLVTVSSSGGGGDIVMTQSPDSLAVSLGERATINCKSSQSLLYSRNQKNYLAWYQQKPGQPPKLLIFWASTRESGVPDRFSGSGFGTDFTLTISSLQAEDVAVYYCQQYFSYPLTFGQGTKVEIKGGCPPCPPC
The molecule B5 had a Kd in assay [1] of roughly 1 nM.

B6: IAB16M1-30 (other)
chain: DIVMTQSPDSLAVSLGERATINCKSSQSLLYSRNQKNYLAWYQQKPGQPPKLLIFWASTRESGVPDRFSGSGSGTDFTLTISSLQAEDFAVYYCQQYYSYPLTFGQGTKVEIKGSTSGGGSGGGSGGGGSSQVQLVQSGAEVKKPGASVKVSCKASGYTFTEYTIHWVRQAPGQRLEWIGGINPNNGIPNYNQKFKGRVTITVDTSASTAYMELSSLRSEDTAVYYCARRRIAYGYDEGHAMDYWGQGTLVTVSSEPKSSDKTHTCPPCPPCGGGSSGGGSGGQPREPQVYTLPPSREEMTKNQVSLTCLVKGFYPSDIAVEWESNGQPENNYKTTPPVLDSDGSFFLYSKLTVDKSRWQQGNVFSCSVMHEALHNHYTQKSLSLSPG
For the molecule B6, in assay [2], the Kd is roughly 0.1 nM.

B7: IAB16M1-32 (other)
chain: DIVMTQSPDSLAVSLGERATINCKSSQSLLYSRNQKNYLAWYQQKPGQPPKLLIFWASTRESGVPDRFSGSGFGTDFTLTISRLEPEDFAVYYCQQYFSYPLTFGQGTKVEIKGSTSGGGSGGGSGGGGSSQVQLVQSGAEVKKPGASVKVSCKTSRYTFTEYTIHWVRQAPGQRLEWIGGINPNNGIPNYNQKFKGRVTITVDTSASTAYMELSSLRSEDTAVYYCARRRIAYGYDEGHAMDYWGQGTLVTVSSEPKSSDKTHTCPPCPPCGGGSSGGGSGGQPREPQVYTLPPSREEMTKNQVSLTCLVKGFYPSDIAVEWESNGQPENNYKTTPPVLDSDGSFFLYSKLTVDKSRWQQGNVFSCSVMHEALHNHYTQKSLSLSPG
As to B7, in assay [2], the Kd was roughly 0.1 nM.

B8: IAB16M1-36 (other)
chain: DIVMTQSPDSLAVSLGERATINCKSSQSLLYSRNQKNYLAWYQQKPGQPPKLLIFWASTRESGVPDRFSGSGSGTDFTLTISRLEPEDFAVYYCQQYYSYPLTFGQGTKVEIKGSTSGGGSGGGSGGGGSSQVQLVQSGAEVKKPGASVKVSCKASGYTFTEYTIHWVRQAPGQRLEWIGGINPNNGIPNYNQKFKGRVTITVDTSASTAYMELSSLRSEDTAVYYCARRRIAYGYDEGHAMDYWGQGTLVTVSSEPKSSDKTHTCPPCPPCGGGSSGGGSGGQPREPQVYTLPPSREEMTKNQVSLTCLVKGFYPSDIAVEWESNGQPENNYKTTPPVLDSDGSFFLYSKLTVDKSRWQQGNVFSCSVMHEALHNHYTQKSLSLSPG
With B8, the Kd in assay [2] is roughly 0.1 nM.

B9: IAB16M2-31 (other)
chain: QVQLVQSGAEVKKPGASVKVSCKASGYTFTEYTIHWVRQAPGQRLEWIGGINPNNGIPNYNQKFKGRVTITVDTSASTAYMELSSLRSEDTAVYYCARRRIAYGYDEGHAMDYWGQGTLVTVSSGSTSGGGSGGGSGGGGSSDIVMTQSPDSLAVSLGERATINCKSSQSLLYSRNQKNYLAWYQQKPGQPPKLLIFWASTRESGVPDRFSGSGSGTDFTLTISSLQAEDFAVYYCQQYYSYPLTFGQGTKVEIKEPKSSDKTHTCPPCPPCGGGSSGGGSGGQPREPQVYTLPPSREEMTKNQVSLTCLVKGFYPSDIAVEWESNGQPENNYKTTPPVLDSDGSFFLYSKLTVDKSRWQQGNVFSCSVMHEALHNHYTQKSLSLSPG
In assay [2], B9 registered a Kd of roughly 0.1 nM.

B10: IAB16M2-33 (other)
chain: QVQLVQSGAEVKKPGASVKVSCKTSRYTFTEYTIHWVRQAPGQRLEWIGGINPNNGIPNYNQKFKGRVTITVDTSASTAYMELSSLRSEDTAVYYCARRRIAYGYDEGHAMDYWGQGTLVTVSSGSTSGGGSGGGSGGGGSSDIVMTQSPDSLAVSLGERATINCKSSQSLLYSRNQKNYLAWYQQKPGQPPKLLIFWASTRESGVPDRFSGSGFGTDFTLTISRLEPEDFAVYYCQQYFSYPLTFGQGTKVEIKEPKSSDKTHTCPPCPPCGGGSSGGGSGGQPREPQVYTLPPSREEMTKNQVSLTCLVKGFYPSDIAVEWESNGQPENNYKTTPPVLDSDGSFFLYSKLTVDKSRWQQGNVFSCSVMHEALHNHYTQKSLSLSPG
In assay [2], B10 registered a Kd of roughly 0.1 nM.

B11: IAB16C4-19 (other)
chain: EVQLLESGGGLVQPGGSLRLSCAASGFTFSSYAMSWVRQAPGKGLEWVSAIIGSGASTYYADSVKGRFTISRDNSKNTLYLQMNSLRAEDTAVYYCAKGWFGGFNYWGQGTLVTVSSGGGSGGGGEIVLTQSPGTLSLSPGERATLSCRASQSVTSSYLAWYQQKPGQAPRLLINVGSRRATGIPDRFSGSGSGTDFTLTISRLEPEDFAVYYCQQGIMLPPTFGQGTKVEIKGGCPPCPPC
notes: also called IAB164-19
In assay [1], B11 came in with a Kd of roughly 1 nM.

B12: IAB16C4-17 (other)
chain: QVQLVQSGAEVKKPGASVKVSCKTSRYTFTEYTIHWVRQAPGQRLEWIGGINPNNGIPNYNQKFKGRVTITVDTSASTAYMELSSLRSEDTAVYYCARRRIAYGYDEGHAMDYWGQGTLVTVSSGGGSGGGGDIVMTQSPDSLAVSLGERATINCKSSQSLLYSRNQKNYLAWYQQKPGQPPKLLIFWASTRESGVPDRFSGSGFGTDFTLTISSLQAEDVAVYYCQQYFSYPLTFGQGTKVEIKGGCPPCPPC
With B12, the Kd in assay [1] is roughly 1 nM.

B13: IAB16C2-18 (other)
chain: EVQLLESGGGLVQPGGSLRLSCAASGFTFSSYAMSWVRQAPGKGLEWVSAIIGSGASTYYADSVKGRFTISRDNSKNTLYLQMNSLRAEDTAVYYCAKGWFGGFNYWGQGTLVTVSSSGGGGEIVLTQSPGTLSLSPGERATLSCRASQSVTSSYLAWYQQKPGQAPRLLINVGSRRATGIPDRFSGSGSGTDFTLTISRLEPEDFAVYYCQQGIMLPPTFGQGTKVEIKGGCPPCPPC
For B13, in assay [1], the Kd was roughly 1 nM.

The values are drawn from US20240390531A1 (IMAGINAB, published 2024).
